# Results from patent publication US5427937.
# Target: purified human coagulation factor Xa (human) (UniProt P00742)
substance,measurement,value
crude soluble hookworm protein extract (Ancylostoma caninum adult worms) (pool or library),"factor Xa activity (chromogenic assay, hydrolysis of Chromozym X)",50 % reduction
